Assays:
bEnd.3 ECM [1] = test: Biopanning of individual VLR-displaying yeast clones onto bEnd.3 and 3T3 ECM, bright-field microscopy; type: binding, mouse; settings: yeast-displayed VLR, qualitative
Method: FIGS. 1A-1D. Identification of VLRs that bind brain ECM. (A) A yeast surface display VLR library underwent two rounds of biopanning to enrich for clones that bind bEnd.3 ECM. Next, individual clones were grown, induced and screened for comparative binding to bEnd.3 and 3T3 ECM. VLRs were released from the yeast surface using reducing agent and VLR binding to ECM was measured by probing the anti-c-myc epitope tag in an ELISA format. (B) Fold-changes in ECM binding. The ratio of bEnd.3 ECM/3T3 ECM ELISA signals is shown for 285 VLR clones. Lead clones P3A8 and P1C10 are noted. (C) Preferential binding to bEnd.3 ECM was evaluated for selected clones by biopanning individual clones onto bEnd.3 and 3T3 ECM. Yeast binding was qualitatively analyzed by bright field microscopy. Scale bars=100 μm. (D) VLRs were reduced off the yeast surface and used in labeling murine brain sections and detected via an anti-c-myc epitope tag antibody (green). Microvessels (magenta) were labeled with […] lectin, and cell nuclei (blue) were visualized with Hoechst 33342 stain. Scale bars=20 μm.
Brain ECM-binding VLRs were identified by mining a yeast surface display library of VLRs. […] After removal, we evaluated the comparative binding of VLRs to bEnd.3 and 3T3 ECM via ELISA screening (FIG. 1A). […]

bEnd.3 ECM [2] = test: ELISA-based screen of comparative VLR binding to bEnd.3 and 3T3 ECM; parameters: species or system mouse; settings: VLR reduced off yeast surface; anti-c-myc detection
Description: Brain ECM-binding VLRs were identified by mining a yeast surface display library of VLRs. The library was generated from the VLR repertoire of lamprey immunized with mechanically isolated murine brain microvessel plasma membrane preparations that contained associated brain ECM (20). The library was first enriched for ECM binders via two rounds of biopanning on decellularized ECM generated by cultured mouse brain endothelial cells (bEnd.3 cell line). Next, we sought to identify ECM-binding clones that preferentially bound bEnd.3 ECM compared to control mouse fibroblast ECM (3T3 cell line). For this analysis, we picked individual yeast clones into 96-well plates and then expanded and induced them for VLR display. To enable moderate throughput analysis of the clones and avoid cumbersome subcloning of many VLR clones, we removed the VLRs directly from yeast surface via reduction. After removal, we evaluated the comparative binding of VLRs to bEnd.3 and 3T3 ECM via ELISA screening (FIG. 1A). […]
The VLR YSD library underwent two rounds of biopanning against bEnd.3 ECM to enrich for brain ECM-binding clones as previously described (20, 42). […] VLR binding was detected by incubation with one-step 3,3′,5,5′-tetramethylbenzidine (TMB) substrate for 15 to 30 min to develop signal. The reaction was stopped via acidification with 1 M HCl and quantified using absorbance signal at 450 nm. […]

U87 cells = test: In vitro U87 cytotoxicity assay on bEnd.3 ECM (CellTiter-Glo); type: cell-based, human; settings: VLR-conjugated doxorubicin-loaded liposomes bound to bEnd.3 ECM, 2 h incubation, unbound washed, 72 hours culture; read-out: EC50, U87 cell viability as a function of doxorubicin concentration
Description: EC50 calculations were made using GraphPad software suite. […] Data are presented as mean pixel intensity±SD.

bEnd.3 ECM [3] = test: Affinity measurement of purified VLR on bEnd.3 ECM (ELISA, one-site equilibrium binding model); parameters: species or system mouse; settings: three replicates, monomeric equilibrium binding model; read-out: Monomeric dissociation constant (Kd) for binding to bEnd.3 ECM
Method: To characterize VLR affinity for bEnd.3 ECM, dilutions of purified VLR were incubated with ECM. P1C10 VLR was diluted using a sixfold dilution scheme from 10 μM to 0.21 nM and then incubated with bEnd.3 ECM. Wells were washed five times with PBS+0.05% Tween 20 and then inubcated with anti-myc 9E10, 1:750, (BioLegend) and goat anti-mouse IgG modified with HRP. Wells were washed seven times with PBS+0.05% Tween 20 and then incubated with TMB substrate. Reaction was stopped after 15 min by acidification with 1 M HCl. Absorbance at 450 nm was quantified, and data were fit to a one-site equilibrium binding model to determine Kd as previously described (43). The amino acid sequence for VLR P1C10 is […]

ELISA fold change (ratio of bEnd.3 ECM/3T3 ECM ELISA signals) (bEnd.3 ECM [2]): 4.2 fold | Kd (bEnd.3 ECM [3]): 48.4 ± 6.05 nM
B1: P1C10: Lamprey variable lymphocyte receptor clone binding brain ECM, SEQ ID NO:1 (protein)
chain: ACPSQCSCDQTTVKCHSRRLTSVPAGIPTTTKILRLYSNQITKLEPGVFDHLVNLEKLYISWNQLSALPVGVFDKLTKLTHLSLGYNQLKSVPRGAFDNLKSLTHIWLLNNPWDCECSDILYLKNWIVQHASIVNLQGHGGVDNVKCSGTNTPVRAVTEASTSPSKCP
modifications: Synthetic- VLR clone P1C10
Yeast clone binding to bEnd.3 ECM compared to 3T3 ECM (bEnd.3 ECM [1]): bound selectively to bEnd.3 ECM compared to 3T3 ECM | EC50 (U87 cells): 199 ± 1.7 nM
